Molecular target: putative EMR2 ligand
Assay: flow cytometry on human monocyte-derived macrophages; abolished by EGTA

percent of cells bound: 45 to 50%
Substance: biotinylated soluble EMR2(EGF-1,2,3,4,5) protein-fluorescent bead complex (from UniProt Q9UHX3 24-260) (receptor)
